This data set can be described thus: yeast display, Sf9 membrane polyspecificity reagent, FACS + sequencing; frameworks hold sequencing errors. In a few lines:
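Nanobodies came from a synthetic yeast display library in Saccharomyces cerevisiae BJ5465, induced with galactose for 36–48 hours and stained for 1 hour at 4 °C with 10% biotinylated, detergent-solubilized Sf9 membrane reagent. Cells were enriched on streptavidin microbeads and then FACS-sorted, with low and high (top ~1%) gates set on anti-HA fluorescence for expression and streptavidin fluorescence for reagent binding. Each polyreactivity label reflects the gate a clone came from. Genes were amplified by colony PCR, sequenced by MiSeq 2 × 250 and filtered by CDR length.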
Take “QVQLVESGGGLVQAGGSLRLSCAASGFTIYKYAMGWYRQPPGKERELVAAITGRGGSTNYADSVKGRFTISRDTAQNTVYLQMNILKPEDTAFYYCAARTPSYEMDYWGQGTQVTVSS”: the “polyreactivity (PSR sort gate)” value is recorded as “high polyreactivity”.
As for “QVQLVESGGGLVQAGGSLRLSCAASGFTIYLYTMGWYRQAPGKERELVATISWSGGSTYYADSVKGRFTISRDNAKNNVYLHMNSLKPEDTAVYYCAKAYNGRYTWRYDYWGQGTQVTVSS”, the entry is “high polyreactivity”; as for “QVQLVESGGGLVQAGGSLRLSCAASGFTIYRYAMGWYRQAPGKERELVAAITGGGGSTYYADSVKGRFTISRDNAKNTVYLQMNSLKPEVTAVYYCAVDVYHKGQYRWSYGYWGQGTQVTVSS”, “low polyreactivity”.
Consider “QVQLVESGGGLVQAGGSLRLSCAASGFTLAGYAMGWYRQAPGKERELVSAITTSGGSTFYADSVKGRFTISRDNAKNTDYLKMNSLKPEDTAVYYCAAAIRTRTSYYRFDYWGQGTQVTVSS”, for which the “polyreactivity (PSR sort gate)” value was “high polyreactivity”.
As for “QVQLVESGGGLVQAGGSLRLSCAASGFTLANYAMGWYRQAPGKERELVAAIDYSGGGTYYADSVKGRFTISRDNAKNTVYLQMNSLKPEDTAVYYCAARRWSYYSAKYDYWGQGTQVTVSS”, the entry is “low polyreactivity”; as for “QVQLVESGGGLVQAGGSLRLSCAASGFTLARYAMGWYRPAPGKERELVAALTQSGVSTYYADSVKGRFTISRDNAKNTVYLQMNSLKPEDTAVYYCNALLRRTDYRYTWGYGYWGQGTQVTVSS”, “high polyreactivity”.
Regarding “QVQLVESGGGLVQAGGSLRLSCAASGFTLDRYAMGWYRQAPGKERELVAAITQSGVSTYYADSVKGRFTISRDNAKNTVYLQMNSLKPEDTAVYYCNALLRRTDYRYTWGYGYWGQGTQVTVSS”, the “polyreactivity (PSR sort gate)” value is given as “high polyreactivity”.
On to “QVQLVESGGGLVQAGGSLRLSCAASGFTLEYNAMGWYRQAPGKERELVAAIDGDGTTYYADSVKGRFTISRDNAKNTVYLQMNSLKPEDTAVYYCNTRTTPYYAQGITRIEYDYWGQGTQVTVSS”, for which the “polyreactivity (PSR sort gate)” value is “low polyreactivity”.
As for “QVQLVESGGGLVQAGGSLRLSCAASGFTLFWNDMGWYRQAPGKERELVAAITSGDDTYADSVKGRFTISRDNAKNTVYLQMNSLKPEDTAVYYCNKDDPLRNVAQVILYEFYYWGQGTQVTVSS”, the entry is “low polyreactivity”; as for “QVQLVESGGGLVQAGGSLRLSCAASGFTLGRYAMGWYRQAPGKERELVAAISSGGRTYYADSVKGRFTISRDNAKNTVYLQMNSLKPEDTAVYYCAADPRYISYDYWGQGTQVTVSS”, “low polyreactivity”.
As to “QVQLVESGGGLVQAGGSLRLSCAASGFTLGSNAMGWYRQAPGKERELVAAISKSGGSTYYADSVKGRFTISRDNAKNTVYLQMNSLKPEDTAVYYCAARYLYQGYRYDYWGQGTQVTVSS”, the “polyreactivity (PSR sort gate)” value is reported as “high polyreactivity”.
As for “QVQLVESGGGLVQAGGSLRLSCAASGFTLPVYAMGWYRQAPGKERELVARITWSAGRTYYADSVKGRFTISRDNAKNTGYLQMNSLKPEDTAVYYCAAGPVSQHHSPRPHDYWGQGTQVTVSS”, the entry is “high polyreactivity”; as for “QVQLVESGGGLVQAGGSLRLSCAASGFTLPVYGMGWYRQAPGQERELVAAISSRGGNTYYADSVKGRFTISRDNAKNTVYLQMNSLKPEDTAVYYCAAGGITYTGDDYWGQGTQVTVSS”, “high polyreactivity”.
In the case of “QVQLVESGGGLVQAGGSLRLSCAASGFTLQRYAMGWYRQAPGKEREFVAVITRSGGSTYYADSVKGRFTISRDNAKNSVYLQMNSLKPEDTAVYDCAKREFPTTRNRGRYDYWGQGTQVTVSS” it was “high polyreactivity”.
For the sequence “QVQLVESGGGLVQAGGSLRLSCAASGFTLSYYAMGWYRQAPGKERELVASISAIGGITYYADSVKGRFTISRDNAKNTVYLQMNSLKPEDTAVYYCARQGRRYRRFDSWGQGTQVTVSS”, the “polyreactivity (PSR sort gate)” value is “high polyreactivity”.
As for “QVQLVESGGGLVQAGGSLRLSCAASGFTLTLYAMGCYRQSPGKERELVAAISGNGGRTYYADSVKGRFTISRDNAKNTVYLQMNSLKPEDTAVYYCAARYTRSPSDYSTRKFGYGYWGQGTQVTVSS”, the entry is “high polyreactivity”.

Values taken from the nanobody polyreactivity screen of Harvey et al. (2022).
